# Source: patent US20190099470
# Biological target: T1, Mouse MAVS, endogenous, on mitochondria of wild-type MEFs and BMDCs (UniProt Q8VCF0)
# T1 sequence: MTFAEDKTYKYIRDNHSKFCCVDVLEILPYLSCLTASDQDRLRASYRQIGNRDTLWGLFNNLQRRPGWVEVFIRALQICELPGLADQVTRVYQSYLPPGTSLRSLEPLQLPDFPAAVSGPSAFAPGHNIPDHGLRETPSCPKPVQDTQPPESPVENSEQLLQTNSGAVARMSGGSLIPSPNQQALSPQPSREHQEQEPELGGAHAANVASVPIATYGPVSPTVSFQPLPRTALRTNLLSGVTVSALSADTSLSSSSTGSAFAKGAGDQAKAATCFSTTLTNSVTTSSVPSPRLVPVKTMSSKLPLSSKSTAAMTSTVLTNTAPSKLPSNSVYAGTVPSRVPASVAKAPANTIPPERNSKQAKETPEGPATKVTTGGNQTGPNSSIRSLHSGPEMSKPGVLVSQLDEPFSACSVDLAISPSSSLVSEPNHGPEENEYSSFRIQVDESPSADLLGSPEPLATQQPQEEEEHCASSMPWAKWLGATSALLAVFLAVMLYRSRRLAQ
substance,measurement,value
Coxsackievirus B3 (CVB3) 3C^pro protease,"MAVS cleavage in CVB3-infected MEFs (immunoblotting), 3 h post-infection",the CVB3 3C^pro protease had produced only a small amount of cleaved MAVS
same,"MAVS cleavage in CVB3-infected MEFs (immunoblotting), 24 h post-infection",CVB3 3C^pro had significantly cleaved MAVS
